Experimental data taken from publication PMC11615109, “PinX1 suppresses cancer progression by inhibiting telomerase activity in cervical squamous cell carcinoma and endocervical adenocarcinoma” (Genes & Diseases, 2024).
One block for each molecule: values may come before it.

Experiments:
[1] = target: TRF1 TRFH (TRF homology) domain; experiment: crystal structure; purified TRF1 TRFH-PinX1TBM complex, 2.7 Å
[2] = target: T1, 3×Flag-TERT (purified human telomerase) (human, UniProt O14746 1-1132); experiment: pull-down; 3×Flag-TERT (purified telomerase) captured by GST-PinX1 constructs (GST as control), silver staining and Western blot; conditions: both partners purified
T1 construct: TERT, the protein subunit of human telomerase; Purified as telomerase; also called purified telomerase; source: human telomerase, purified
T1 sequence (O14746 whole entry): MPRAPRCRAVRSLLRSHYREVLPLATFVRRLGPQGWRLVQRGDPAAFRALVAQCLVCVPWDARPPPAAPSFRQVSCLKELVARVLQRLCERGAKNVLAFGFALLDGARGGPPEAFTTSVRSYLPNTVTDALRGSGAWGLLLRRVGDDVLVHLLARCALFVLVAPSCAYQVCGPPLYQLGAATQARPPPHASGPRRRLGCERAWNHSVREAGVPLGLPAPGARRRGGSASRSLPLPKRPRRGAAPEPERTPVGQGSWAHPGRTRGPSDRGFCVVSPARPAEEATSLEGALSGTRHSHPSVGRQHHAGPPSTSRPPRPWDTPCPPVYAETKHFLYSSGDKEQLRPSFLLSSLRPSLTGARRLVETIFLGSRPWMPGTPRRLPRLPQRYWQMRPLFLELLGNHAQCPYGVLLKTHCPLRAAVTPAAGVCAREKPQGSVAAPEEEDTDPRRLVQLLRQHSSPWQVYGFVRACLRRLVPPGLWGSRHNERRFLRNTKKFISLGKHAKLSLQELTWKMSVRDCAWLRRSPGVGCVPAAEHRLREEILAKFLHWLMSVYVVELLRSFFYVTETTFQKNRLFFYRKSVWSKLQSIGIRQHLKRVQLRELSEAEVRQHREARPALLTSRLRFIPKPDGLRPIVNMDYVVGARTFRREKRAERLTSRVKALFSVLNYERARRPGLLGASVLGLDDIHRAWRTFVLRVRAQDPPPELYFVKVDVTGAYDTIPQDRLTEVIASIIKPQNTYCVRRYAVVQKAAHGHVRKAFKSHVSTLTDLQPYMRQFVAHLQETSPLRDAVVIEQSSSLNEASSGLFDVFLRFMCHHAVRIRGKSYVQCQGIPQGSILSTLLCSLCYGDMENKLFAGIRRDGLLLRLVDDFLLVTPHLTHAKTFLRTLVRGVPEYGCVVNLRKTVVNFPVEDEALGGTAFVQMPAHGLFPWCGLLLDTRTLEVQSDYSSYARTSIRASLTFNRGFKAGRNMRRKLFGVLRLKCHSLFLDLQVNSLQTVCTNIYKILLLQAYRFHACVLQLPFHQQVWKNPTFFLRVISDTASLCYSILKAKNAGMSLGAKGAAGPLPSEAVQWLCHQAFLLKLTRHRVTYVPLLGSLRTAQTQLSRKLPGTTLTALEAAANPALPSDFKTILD

[3] = target: T1, 3×Flag-TERT (purified human telomerase); experiment: pull-down; GST-PinX1-C (132-328) captured by 3×Flag-TERT (MBP-3×Flag as control), Western blot; conditions: both partners purified

stoichiometry N [1]: 2
Molecule: TRF1 TRFH (TRF homology) domain (domain or fragment)

binding result [2]: binds
B1: GST-PinX1(203-328) (domain or fragment, UniProt Q96BK5 203-328, looked up)
chain: SETQVERKRGKKRNKEATGKDVESYLQPKAKRHTEGKPERAEAQERVAKKKSAPAEEQLRGPCWDQSSKASAQDAGDHVQPPEGRDFTLKPKKRRGKKKLQKPVEIAEDATLEETLVKKKKKKDSK
notes: PinX1 residues 203-328 (TID)

binding result [3]: binds
B2: GST-PinX1(132-328) (domain or fragment, UniProt Q96BK5 132-328, looked up)
chain: GKDLSSRSKTDLDCIFGKRQSKKTPEGDASPSTPEENETTTTSAFTIQEYFAKRMAALKNKPQVPVPGSDISETQVERKRGKKRNKEATGKDVESYLQPKAKRHTEGKPERAEAQERVAKKKSAPAEEQLRGPCWDQSSKASAQDAGDHVQPPEGRDFTLKPKKRRGKKKLQKPVEIAEDATLEETLVKKKKKKDSK
notes: PinX1 residues 132-328; also called GST-PinX1-C (132–328); CTD (C-terminal domain)
